Source: patent publication US20210214414A1 (Pfizer, published 2021)

Assays:
Human SLIT2-N = target: T1, Human SLIT2-N (human, UniProt O94813 31-1121, limits assumed); assay: flow cytometry, AF647-labelled ROBO2-Fc 2.2 on HEK293 cells overexpressing human SLIT2-N
T1 construct: domain: SLIT2-N (N terminal fragment); Soluble analyte in SPR, d2-labelled in HTRF, overexpressed on HEK293 cells in flow cytometry; also called human SLIT2-N (N terminal fragment)
T1 sequence (looked up): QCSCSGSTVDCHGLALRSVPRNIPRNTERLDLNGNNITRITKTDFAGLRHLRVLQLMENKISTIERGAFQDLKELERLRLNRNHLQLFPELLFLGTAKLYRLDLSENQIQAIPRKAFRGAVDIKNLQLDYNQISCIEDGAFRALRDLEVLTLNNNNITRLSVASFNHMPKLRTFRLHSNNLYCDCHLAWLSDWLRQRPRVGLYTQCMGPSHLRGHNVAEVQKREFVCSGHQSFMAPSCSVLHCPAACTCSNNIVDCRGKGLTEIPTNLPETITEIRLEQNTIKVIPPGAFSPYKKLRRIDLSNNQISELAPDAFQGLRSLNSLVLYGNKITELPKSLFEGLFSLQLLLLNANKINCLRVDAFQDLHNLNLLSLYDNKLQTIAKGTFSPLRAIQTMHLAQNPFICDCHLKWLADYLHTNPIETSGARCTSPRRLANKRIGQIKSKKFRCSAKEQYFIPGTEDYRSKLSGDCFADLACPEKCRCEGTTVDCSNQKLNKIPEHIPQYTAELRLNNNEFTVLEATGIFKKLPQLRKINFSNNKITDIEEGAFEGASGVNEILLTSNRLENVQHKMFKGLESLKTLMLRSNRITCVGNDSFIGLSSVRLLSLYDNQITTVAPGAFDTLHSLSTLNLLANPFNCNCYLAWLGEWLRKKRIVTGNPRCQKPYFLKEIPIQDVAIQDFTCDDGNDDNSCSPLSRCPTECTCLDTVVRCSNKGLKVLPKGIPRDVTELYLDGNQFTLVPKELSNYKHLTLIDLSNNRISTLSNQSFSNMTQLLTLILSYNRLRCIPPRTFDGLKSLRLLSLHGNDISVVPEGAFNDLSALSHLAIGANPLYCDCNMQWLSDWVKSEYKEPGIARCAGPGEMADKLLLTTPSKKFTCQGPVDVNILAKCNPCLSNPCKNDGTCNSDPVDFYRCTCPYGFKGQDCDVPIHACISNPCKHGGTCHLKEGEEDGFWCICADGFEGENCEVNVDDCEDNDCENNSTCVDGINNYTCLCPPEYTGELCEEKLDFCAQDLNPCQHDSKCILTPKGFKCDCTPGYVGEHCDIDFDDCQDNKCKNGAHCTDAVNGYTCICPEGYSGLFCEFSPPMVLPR
Method: After incubation, 150 μL of FACS buffer was added per well to wash the cells. After washing, cells were resuspended in buffer for data acquisition on a Fortessa Flow Cytometer.

[1] = target: T2, Cynomolgus monkey SLIT3-N (cynomolgus monkey, UniProt A0A2K5UAP4 33-1125); assay: HTRF competition: d2-labelled cynomolgus monkey SLIT3-N binding to human ROBO2 on HEK293 cells; geometric mean, n=3
T2 construct: domain: SLIT3-N; d2-labelled in the HTRF assay
T2 sequence: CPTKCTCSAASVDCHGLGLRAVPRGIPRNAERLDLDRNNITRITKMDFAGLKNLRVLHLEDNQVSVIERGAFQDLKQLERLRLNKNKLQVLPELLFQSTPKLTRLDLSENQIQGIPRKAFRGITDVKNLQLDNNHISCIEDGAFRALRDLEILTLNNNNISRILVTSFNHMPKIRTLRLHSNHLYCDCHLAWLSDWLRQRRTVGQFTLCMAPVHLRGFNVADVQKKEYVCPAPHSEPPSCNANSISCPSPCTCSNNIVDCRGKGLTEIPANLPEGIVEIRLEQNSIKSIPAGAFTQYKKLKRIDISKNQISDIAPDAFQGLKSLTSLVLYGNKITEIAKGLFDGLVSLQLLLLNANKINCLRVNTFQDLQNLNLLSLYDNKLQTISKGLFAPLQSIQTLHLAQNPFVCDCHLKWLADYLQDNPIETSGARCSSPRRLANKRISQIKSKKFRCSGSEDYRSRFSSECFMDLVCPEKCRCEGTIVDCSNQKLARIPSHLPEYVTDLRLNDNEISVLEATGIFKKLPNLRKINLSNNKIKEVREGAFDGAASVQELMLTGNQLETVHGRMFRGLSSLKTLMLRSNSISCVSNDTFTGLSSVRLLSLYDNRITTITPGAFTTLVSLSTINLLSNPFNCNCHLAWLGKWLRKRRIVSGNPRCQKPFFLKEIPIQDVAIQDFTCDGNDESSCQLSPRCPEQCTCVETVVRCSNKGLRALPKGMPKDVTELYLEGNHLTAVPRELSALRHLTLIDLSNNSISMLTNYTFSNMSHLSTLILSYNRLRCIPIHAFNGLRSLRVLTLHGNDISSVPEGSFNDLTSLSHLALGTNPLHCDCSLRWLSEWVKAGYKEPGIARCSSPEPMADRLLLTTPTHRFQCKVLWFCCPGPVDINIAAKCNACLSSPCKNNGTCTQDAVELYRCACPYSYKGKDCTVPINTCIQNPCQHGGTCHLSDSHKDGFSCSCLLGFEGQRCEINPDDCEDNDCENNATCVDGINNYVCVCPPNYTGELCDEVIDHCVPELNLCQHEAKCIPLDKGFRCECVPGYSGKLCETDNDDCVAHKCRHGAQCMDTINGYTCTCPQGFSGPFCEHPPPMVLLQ
Method: After incubation, fluorescence at 665 nm and 620 nm was measured on an Envision multilabel plate reader. The HTRF Ratio was calculated as follows: fluorescence at 665 nm/fluorescence at 620 nm×10,000. […] The IC₅₀ for each SLITx-N was determined using an 11-point, 4-fold dilution series with a top concentration of 4000 nM.

B1: ROBO2-Fc 2.2 (Fc fusion)
chain: SRLRQEDFPPRIVEHPSDVIVSKGEPTTLNCKAEGRPTPTIEWYKDGERVETDKDDPRSHRMLLPSGSLFFLRIVHGRRSKPDEGSYVCVARNYLGEAVSRNASLEVALLRDDFRQNPTDVVVAAGEPAILECQPPRGHPEPTIYWKKDKVRIDDKEERISIRGGKLMISNTRKSDAGMYTCVGTNMVGERDSDPAELTVFERGGSGGSEPKSSDKTHTCPPCPAPEAAGAPSVFLFPPKPKDTLMISRTPEVTCVVVDVSHEDPEVKFNWYVDGVEVHNAKTKPREEQYNSTYRVVSVLTVLHQDWLNGKEYKCKVSNKALPAPIEKTISKAKGQPREPQVYTLPPSREEMTKNQVSLTCLVKGFYPSDIAVEWESNGQPENNYKTTPPVLDSDGSFFLYSKLTVDKSRWQQGNVFSCSVMHEALHNHYTQKSLSLSPG
notes: Labelled with Alexa Fluor 647 in the flow cytometry assay; also called ROBO-Fc 2.2; ROBO2-Fc 2.2-AF647
B1 gave an EC50 (Human SLIT2-N) of 8.6 nM and an IC50 [1] of 3.6 nM.
